Source: the supplement of paper PMC9233669
This sample holds only a part of the variants without activity.

Assays:
[1] = tested on: biotinyl-Phe-oxazolone; assay: self-aminoacylation, catalytic enhancement (BFO) (fold over background); higher = more active; k-Seq, kA / k0A0; sequences stand for … in GGGAAUGGAUCCACAUCUACGAAUUC…UUCACUGCAGACUUGACGAAGCUG
How it was run: (§1)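 Each biotinyl-aminoacyl-oxazolone, at 2–1250 μM, was incubated with mutagenized RNA pools (0.43 μM) carrying a 21-nt variable region. The 50 μL reactions contained HEPES/NaCl/KCl/MgCl2/CaCl2 buffer with 5% acetonitrile at pH 6.9–7.0 and ran for 90 minutes at room temperature. After streptavidin capture, RNA was measured by qPCR in triplicate and by Illumina sequencing, and catalytic enhancement was calculated as median kA over the uncatalyzed rate from a pseudo-first-order fit of per-sequence fraction reacted.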

[2] = tested on: biotinyl-Leu-oxazolone; assay: self-aminoacylation, catalytic enhancement (BLO) (fold over background); higher = more active; k-Seq, kA / k0A0; sequences stand for … in GGGAAUGGAUCCACAUCUACGAAUUC…UUCACUGCAGACUUGACGAAGCUG
How it was run: as §1

[3] = tested on: biotinyl-Trp-oxazolone; assay: self-aminoacylation, catalytic enhancement (BWO) (fold over background); higher = more active; k-Seq, kA / k0A0; sequences stand for … in GGGAAUGGAUCCACAUCUACGAAUUC…UUCACUGCAGACUUGACGAAGCUG
How it was run: as §1

[4] = tested on: biotinyl-Val-oxazolone; assay: self-aminoacylation, catalytic enhancement (BVO) (fold over background); higher = more active; k-Seq, kA / k0A0; sequences stand for … in GGGAAUGGAUCCACAUCUACGAAUUC…UUCACUGCAGACUUGACGAAGCUG
How it was run: as §1

[5] = tested on: biotinyl-Ile-oxazolone; assay: self-aminoacylation, catalytic enhancement (BIO) (fold over background); higher = more active; k-Seq, kA / k0A0; sequences stand for … in GGGAAUGGAUCCACAUCUACGAAUUC…UUCACUGCAGACUUGACGAAGCUG
How it was run: as §1

[6] = tested on: biotinyl-Met-oxazolone; assay: self-aminoacylation, catalytic enhancement (BMO) (fold over background); higher = more active; k-Seq, kA / k0A0; sequences stand for … in GGGAAUGGAUCCACAUCUACGAAUUC…UUCACUGCAGACUUGACGAAGCUG
How it was run: as §1

Row | Sequence | self-aminoacylation [1] | self-aminoacylation [2] | self-aminoacylation [3] | self-aminoacylation [4] | self-aminoacylation [5] | self-aminoacylation [6]
1 | AUUCUCCUAGGUCAUCGGGUA [Fam2.2 aminoacylation ribozyme variant] | 29.6 | 8.96 | 7.31 | 4.84 | 4.71 | 7.07
2 | AUUCUCCUGGUCAUCGAGUGA [Fam2.1 aminoacylation ribozyme variant] | 33.7 | 6.5 | 7.91 | 3.89 | 3.67 | 6.14
3 | AUUCUCUUAGGUCAUCGGGUG [Fam2.2 aminoacylation ribozyme variant] | 77.6 | 12.5 | 9.36 | 5.53 | 5.7 | 9.08
4 | AUUCUUCUAGGUCAUCGGGUG [Fam2.2 aminoacylation ribozyme variant] | 50.3 | 9.07 | 6.98 | 5.28 | 4.52 | 7.87
5 | AUUGACCUACGUCAUCGGGUG [Fam2.2 aminoacylation ribozyme variant] | 40.6 | 6.43 | 5.9 | 3.81 | 3.13 | 4.72
6 | AUUGACCUAGGGCAUCGGGUG [Fam2.2 aminoacylation ribozyme variant] | 17 | 3.63 | 4.66 | 3.28 | 3.23 | 3.13
7 | AUUGACCUAGGUCACCGGGUG [Fam2.2 aminoacylation ribozyme variant] | 29.6 | 6.34 | 6.05 | 4.87 | 4.43 | 4.69
8 | AUUGACCUAGGUCAUCGGGGG [Fam2.2 aminoacylation ribozyme variant] | 12.8 | 4.57 | 3.93 | 3.04 | 3.41 | 3.21
9 | AUUGACCUAGGUCAUCGGGUU [Fam2.2 aminoacylation ribozyme variant] | 98.6 | 18.8 | 12.2 | 6.49 | 7.25 | 13.9
10 | AUUGACCUAGGUCUUCGGGUG [Fam2.2 aminoacylation ribozyme variant] | 19 | 4.19 | 4.79 | 3.97 | 3.85 | 4.29
11 | AUUGACCUAGUUCAUCGGGUG [Fam2.2 aminoacylation ribozyme variant] | 18.6 | 3.62 | 4.08 | 2.59 | 2.62 | 3.19
12 | AUUGACCUGGGUCAUCGGGUG [Fam2.2 aminoacylation ribozyme variant] | 107 | 29.6 | 24.1 | 13.5 | 12.2 | 25.9
13 | AUUGACCUGGUCAUCGAGUGA [Fam2.1 aminoacylation ribozyme variant] | 8.3 | 7.86 | 9.68 | 4.1 | 3.66 | 6.92
14 | AUUGCCCUGGACAUCGAGUGA [Fam2.1 aminoacylation ribozyme variant] | 24.8 | 5.58 | 5.92 | 3.11 | 2.41 | 5.71
15 | AUUGCCCUGGUCAACGAGUGA [Fam2.1 aminoacylation ribozyme variant] | 49.1 | 6.71 | 7.12 | 3.53 | 3.3 | 6.85
16 | AUUGCCCUGGUCAUCGAGGGA [Fam2.1 aminoacylation ribozyme variant] | 4.65 | 3.97 | 3.16 | 2.22 | 1.93 | 3.9
17 | AUUGCCCUGUUCAUCGAGUGA [Fam2.1 aminoacylation ribozyme variant] | 25.2 | 5.81 | 7.43 | 4.12 | 3 | 5.44
18 | AUUGCCCUUGUCAUCGAGUGA [Fam2.1 aminoacylation ribozyme variant] | 42.1 | 7.02 | 8.3 | 3.88 | 3.38 | 7.03
19 | AUUGUCCUAGGUCAUCGGGUG [Fam2.2 aminoacylation ribozyme variant] | 200 | 39.1 | 27.1 | 13.6 | 14.2 | 30.2
20 | AUUUACCAAGGUCAUCGGGUG [Fam2.2 aminoacylation ribozyme variant] | 77.2 | 9.69 | 7.11 | 4.6 | 4.61 | 7.36
21 | AUUUACCCAGGUCAUCGGGUG [Fam2.2 aminoacylation ribozyme variant] | 44.3 | 6.46 | 3.66 | 3.55 | 3.28 | 5.07
22 | AUUUACCUAGCUCAUCGGGUG [Fam2.2 aminoacylation ribozyme variant] | 8.53 | 2.58 | 2.04 | 2.4 | 2.01 | 2.16
23 | AUUUACCUAGGCCAUCGGGUG [Fam2.2 aminoacylation ribozyme variant] | 17.4 | 3.95 | 3.98 | 3.2 | 2.47 | 3.07
24 | AUUUACCUAGGUCAGCGGGUG [Fam2.2 aminoacylation ribozyme variant] | 24.5 | 4.23 | 3.98 | 3.16 | 2.49 | 4.01
25 | AUUUACCUAGGUCAUAGGGUG [Fam2.2 aminoacylation ribozyme variant] | 1.34 | 1.87 | 1.97 | 1.48 | 1.37 | 1.58
26 | AUUUACCUAGGUCAUCCGGUG [Fam2.2 aminoacylation ribozyme variant] | 41.8 | 7.4 | 4.6 | 3.81 | 3.68 | 4.7

Row | Sequence | self-aminoacylation [1] | self-aminoacylation [2] | self-aminoacylation [3] | self-aminoacylation [4] | self-aminoacylation [5] | self-aminoacylation [6]
27 | AUUUACCUAGGUCAUCGCGUG [Fam2.2 aminoacylation ribozyme variant] | 82.1 | 13.6 | 9.58 | 5.84 | 5.32 | 9.66
28 | AUUUACCUAUGUCAUCGGGUG [Fam2.2 aminoacylation ribozyme variant] | 28 | 6.5 | 4.76 | 2.96 | 3.04 | 4.35
29 | AUUUACGUAGGUCAUCGGGUG [Fam2.2 aminoacylation ribozyme variant] | 25.2 | 3.68 | 3.64 | 3.38 | 2.88 | 3.99
30 | AUUUCCCAGGUCAUCGAGUGA [Fam2.1 aminoacylation ribozyme variant] | 26.3 | 5.63 | 6.32 | 3.4 | 2.89 | 5.06
31 | AUUUCCCUGAUCAUCGAGUGA [Fam2.1 aminoacylation ribozyme variant] | 18.5 | 5.98 | 7.61 | 3.27 | 3 | 6.25
32 | AUUUCCCUGGCCAUCGAGUGA [Fam2.1 aminoacylation ribozyme variant] | 11.7 | 2.78 | 3.3 | 1.95 | 1.72 | 2.45
33 | AUUUCCCUGGUCAUCGAAUGA [Fam2.1 aminoacylation ribozyme variant] | 0.941 | 1.02 | 0.88 | 1.12 | 1.09 | 1.02
34 | AUUUCCCUGGUCAUCGAUUGA [Fam2.1 aminoacylation ribozyme variant] | 0.598 | 1.06 | 0.985 | 1 | 1.07 | 0.986
35 | AUUUCCCUGGUCAUGGAGUGA [Fam2.1 aminoacylation ribozyme variant] | 22 | 4.22 | 4.72 | 2.89 | 2.96 | 4.2
36 | AUUUCCCUGGUGAUCGAGUGA [Fam2.1 aminoacylation ribozyme variant] | 44.4 | 5.66 | 6.58 | 3.15 | 2.77 | 5.5
37 | AUUUCCCUGUUCAUCGAGUGA [Fam2.1 aminoacylation ribozyme variant] | 11.4 | 5.04 | 5.62 | 3.09 | 2.79 | 5.22
38 | AUUUCGCUGGUCAUCGAGUGA [Fam2.1 aminoacylation ribozyme variant] | 28.5 | 5.38 | 5.72 | 3.16 | 2.84 | 4.64
39 | CAACACCUCAAGCAAUCGGUC [Fam1B.1 aminoacylation ribozyme variant] | 1.3 | 1.1 | 0.997 | 0.914 | 0.947 | 1.27
40 | CAACACUUCAAGCAAACGGUC [Fam1B.1 aminoacylation ribozyme variant] | 0.797 | 0.68 | 0.739 | 0.815 | 0.92 | 0.678
41 | CAACACUUCAAGCAAUCCGUC [Fam1B.1 aminoacylation ribozyme variant] | 1.12 | 1.02 | 0.727 | 1.31 | 1.24 | 1.19
42 | CAACACUUCAAGCAAUCGGUA [Fam1B.1 aminoacylation ribozyme variant] | 1.44 | 1.13 | 1.23 | 1.14 | 1.25 | 1.15
43 | CAACACUUCAAGCAAUCGGUU [Fam1B.1 aminoacylation ribozyme variant] | 6.96 | 1.76 | 4.96 | 1.52 | 1.84 | 1.64
44 | CAACACUUCAAGCAAUCUGUC [Fam1B.1 aminoacylation ribozyme variant] | 0.588 | 0.362 | 0.398 | 0.502 | 0.399 | 0.396
45 | CAACACUUCAAGCAAUGGGUC [Fam1B.1 aminoacylation ribozyme variant] | 0.677 | 0.882 | 0.833 | 0.664 | 0.858 | 0.834
46 | CAACACUUCAAGCAAUUGGUC [Fam1B.1 aminoacylation ribozyme variant] | 1.42 | 0.775 | 0.958 | 0.904 | 0.98 | 0.866
47 | CAACCUCAAACAAUCGGUCUG [Fam1A.1 aminoacylation ribozyme variant] | 11.5 | 1.61 | 4.78 | 1.31 | 1.21 | 1.37
48 | CAACUUCAAACAAACGGUCUG [Fam1A.1 aminoacylation ribozyme variant] | 0.948 | 0.995 | 1.04 | 0.946 | 1.07 | 0.945
49 | CAACUUCAAACAAUAGGUCUG [Fam1A.1 aminoacylation ribozyme variant] | 1.41 | 0.884 | 0.98 | 0.919 | 1.03 | 0.997
50 | CAACUUCAAACAAUCGGACUG [Fam1A.1 aminoacylation ribozyme variant] | 19.2 | 1.41 | 10.6 | 0.945 | 1.26 | 0.952
51 | CAACUUCAGACAAUCGGUCUG [Fam1A.1 aminoacylation ribozyme variant] | 2.46 | 1.08 | 1.43 | 1.09 | 1.09 | 0.989
